# Data reported in patent publication US20250320281A1.
# Tests used:
# [1] = target: WT JR-FL gp120 (HIV-1); test: ELISA, antigen-coated wells
# [2] = target: HIV-1 Env of pseudovirus isolate MGRM-G-014 (HIV-1); test: cell-based or functional assay
# [3] = target: HIV-1 92UG005 Env (pseudovirus) (HIV-1); test: cell-based or functional assay
# [4] = target: HIV-1 CMU02 Env (pseudovirus) (HIV-1); test: cell-based or functional assay
# [5] = target: envelope of aMLV pseudovirus (negative control); test: cell-based or functional assay
# [6] = target: HIV-1 Env of pseudovirus isolate MGRM-G-006 (HIV-1); test: cell-based or functional assay
# [7] = target: HIV-1 Env of pseudovirus isolate MGRM-G-004 (HIV-1); test: cell-based or functional assay
# [8] = target: HIV-1 93IN905 Env (pseudovirus) (HIV-1); test: cell-based or functional assay
# [9] = target: HIV-1 Env of pseudovirus isolate MGRM-G-001 (HIV-1); test: cell-based or functional assay
# [10] = target: HIV-1 MGRM-C-027 Env (pseudovirus) (HIV-1); test: cell-based or functional assay
# [11] = target: HIV-1 92RW020 Env (pseudovirus) (HIV-1); test: cell-based or functional assay
# [12] = target: HIV-1 Env of pseudovirus isolate MGRM-G-017 (HIV-1); test: cell-based or functional assay
# [13] = target: HIV-1 Env of pseudovirus isolate MGRM-G-015 (HIV-1); test: cell-based or functional assay
# [14] = target: HIV-1 MGRM-C-026 Env (pseudovirus) (HIV-1); test: cell-based or functional assay
# [15] = target: HIV-1 JRCSF Env (pseudovirus) (HIV-1) (UniProt P20871); test: cell-based or functional assay
# [16] = target: HIV-1 NL43 Env (pseudovirus) (HIV-1); test: cell-based or functional assay
# [17] = target: HIV-1 94UG103 Env (pseudovirus) (HIV-1); test: cell-based or functional assay
# [18] = target: HIV-1 92UG024 Env (pseudovirus) (HIV-1); test: cell-based or functional assay
# [19] = target: HIV-1 Env of pseudovirus isolate MGRM-G-013 (HIV-1); test: cell-based or functional assay
# [20] = target: HIV-1 APV6 Env (pseudovirus) (HIV-1); test: cell-based or functional assay
# [21] = target: HIV-1 92TH021 Env (pseudovirus) (HIV-1); test: cell-based or functional assay
# [22] = target: HIV-1 Env of pseudovirus isolate MGRM-G-019 (HIV-1); test: cell-based or functional assay
# [23] = target: HIV-1 Env of pseudovirus isolate MGRM-G-009 (HIV-1); test: cell-based or functional assay
# [24] = target: HIV-1 MGRM-A-010 Env (pseudovirus) (HIV-1); test: cell-based or functional assay
# [25] = target: HIV-1 MGRM-C-028 Env (pseudovirus) (HIV-1); test: cell-based or functional assay
# [26] = target: HIV-1 Env of pseudovirus isolate MGRM-G-011 (HIV-1); test: cell-based or functional assay
# [27] = target: HIV-1 MGRM-D-018 Env (pseudovirus) (HIV-1); test: cell-based or functional assay
# [28] = target: HIV-1 Env of pseudovirus isolate MGRM-G-016 (HIV-1); test: cell-based or functional assay
# [29] = target: HIV-1 Env of pseudovirus isolate MGRM-G-027 (HIV-1); test: cell-based or functional assay
substance,measurement,setting,value
5147_N06 (PGT-130) (antibody),EC50,[1],0.2 µg/mL
same,"IC50 (µg/mL), pseudovirus neutralization",[2],2.23 µg/mL
same,"Neutralization by PGT-130, IC50",[3],0.474 µg/mL
same,"Neutralization by PGT-130, IC80",[3],> 10 µg/mL
same,"Neutralization by PGT-130, IC90",[3],> 10 µg/mL
same,"Neutralization by PGT-130, IC95",[3],> 10 µg/mL
same,neutralization IC50 (pseudovirus),[3],0.474 µg/mL
same,"Neutralization by PGT-130, IC50",[4],> 10 µg/mL
same,"Neutralization by PGT-130, IC80",[4],> 10 µg/mL
same,"Neutralization by PGT-130, IC90",[4],> 10 µg/mL
same,"Neutralization by PGT-130, IC95",[4],> 10 µg/mL
same,neutralization IC50 (pseudovirus),[4],> 10 µg/mL
same,"IC50 (µg/mL), pseudovirus neutralization",[5],> 50 µg/mL
same,"IC50 (µg/mL), pseudovirus neutralization",[6],> 50 µg/mL
same,"IC50 (µg/mL), pseudovirus neutralization",[7],> 50 µg/mL
same,"Neutralization by PGT-130, IC50",[8],0.0182 µg/mL
same,"Neutralization by PGT-130, IC80",[8],0.272 µg/mL
same,"Neutralization by PGT-130, IC90",[8],1.31 µg/mL
same,"Neutralization by PGT-130, IC95",[8],5.48 µg/mL
same,neutralization IC50 (pseudovirus),[8],0.0182 µg/mL
same,"IC50 (µg/mL), pseudovirus neutralization",[9],0.0198 µg/mL
same,"Neutralization by PGT-130, IC50",[10],0.0052 µg/mL
same,"Neutralization by PGT-130, IC80",[10],0.0318 µg/mL
same,"Neutralization by PGT-130, IC90",[10],0.106 µg/mL
same,"Neutralization by PGT-130, IC95",[10],0.464 µg/mL
same,neutralization IC50 (pseudovirus),[10],0.0052 µg/mL
same,"Neutralization by PGT-130, IC50",[11],0.014 µg/mL
same,"Neutralization by PGT-130, IC80",[11],0.508 µg/mL
same,"Neutralization by PGT-130, IC90",[11],3.68 µg/mL
same,"Neutralization by PGT-130, IC95",[11],> 10 µg/mL
same,neutralization IC50 (pseudovirus),[11],0.014 µg/mL
same,"IC50 (µg/mL), pseudovirus neutralization",[12],> 50 µg/mL
same,"IC50 (µg/mL), pseudovirus neutralization",[13],> 50 µg/mL
same,"Neutralization by PGT-130, IC50",[14],0.0173 µg/mL
same,"Neutralization by PGT-130, IC80",[14],0.263 µg/mL
same,"Neutralization by PGT-130, IC90",[14],1.32 µg/mL
same,"Neutralization by PGT-130, IC95",[14],6.13 µg/mL
same,neutralization IC50 (pseudovirus),[14],0.0173 µg/mL
same,"Neutralization by PGT-130, IC50",[15],0.0089 µg/mL
same,"Neutralization by PGT-130, IC80",[15],0.0317 µg/mL
same,"Neutralization by PGT-130, IC90",[15],0.0669 µg/mL
same,"Neutralization by PGT-130, IC95",[15],0.134 µg/mL
same,neutralization IC50 (pseudovirus),[15],0.0089 µg/mL
same,"Neutralization by PGT-130, IC50",[16],> 10 µg/mL
same,"Neutralization by PGT-130, IC80",[16],> 10 µg/mL
same,"Neutralization by PGT-130, IC90",[16],> 10 µg/mL
same,"Neutralization by PGT-130, IC95",[16],> 10 µg/mL
same,neutralization IC50 (pseudovirus),[16],> 10 µg/mL
same,"Neutralization by PGT-130, IC50",[17],0.635 µg/mL
same,"Neutralization by PGT-130, IC80",[17],> 10 µg/mL
same,"Neutralization by PGT-130, IC90",[17],> 10 µg/mL
same,"Neutralization by PGT-130, IC95",[17],> 10 µg/mL
same,neutralization IC50 (pseudovirus),[17],0.635 µg/mL
same,"Neutralization by PGT-130, IC50",[18],> 10 µg/mL
same,"Neutralization by PGT-130, IC80",[18],> 10 µg/mL
same,"Neutralization by PGT-130, IC90",[18],> 10 µg/mL
same,"Neutralization by PGT-130, IC95",[18],> 10 µg/mL
same,neutralization IC50 (pseudovirus),[18],> 10 µg/mL
same,"IC50 (µg/mL), pseudovirus neutralization",[19],> 50 µg/mL
same,"Neutralization by PGT-130, IC50",[20],> 10 µg/mL
same,"Neutralization by PGT-130, IC80",[20],> 10 µg/mL
same,"Neutralization by PGT-130, IC90",[20],> 10 µg/mL
same,"Neutralization by PGT-130, IC95",[20],> 10 µg/mL
same,neutralization IC50 (pseudovirus),[20],> 10 µg/mL
same,"Neutralization by PGT-130, IC50",[21],0.0082 µg/mL
same,"Neutralization by PGT-130, IC80",[21],0.0261 µg/mL
same,"Neutralization by PGT-130, IC90",[21],0.0513 µg/mL
same,"Neutralization by PGT-130, IC95",[21],0.0963 µg/mL
same,neutralization IC50 (pseudovirus),[21],0.0082 µg/mL
same,"IC50 (µg/mL), pseudovirus neutralization",[22],27.9 µg/mL
same,"IC50 (µg/mL), pseudovirus neutralization",[23],> 50 µg/mL
same,"Neutralization by PGT-130, IC50",[24],0.0054 µg/mL
same,"Neutralization by PGT-130, IC80",[24],0.0251 µg/mL
same,"Neutralization by PGT-130, IC90",[24],0.0643 µg/mL
same,"Neutralization by PGT-130, IC95",[24],0.164 µg/mL
same,neutralization IC50 (pseudovirus),[24],0.0054 µg/mL
same,"Neutralization by PGT-130, IC50",[25],> 10 µg/mL
same,"Neutralization by PGT-130, IC80",[25],> 10 µg/mL
same,"Neutralization by PGT-130, IC90",[25],> 10 µg/mL
same,"Neutralization by PGT-130, IC95",[25],> 10 µg/mL
same,neutralization IC50 (pseudovirus),[25],> 10 µg/mL
same,"IC50 (µg/mL), pseudovirus neutralization",[26],> 50 µg/mL
same,"Neutralization by PGT-130, IC50",[27],0.0378 µg/mL
same,"Neutralization by PGT-130, IC80",[27],0.289 µg/mL
same,"Neutralization by PGT-130, IC90",[27],2.31 µg/mL
same,"Neutralization by PGT-130, IC95",[27],> 10 µg/mL
same,neutralization IC50 (pseudovirus),[27],0.0378 µg/mL
same,"IC50 (µg/mL), pseudovirus neutralization",[28],> 50 µg/mL
same,"IC50 (µg/mL), pseudovirus neutralization",[29],4.14 µg/mL
